Test results as given in paper PMC3683927.

Experiments:
Assay in all cases: SPR
AML1 Runt domain V170A = AML1 Runt domain V170A (UniProt Q01196 1-188, V170A)
AML1 Runt domain [1] = molecular target: T1, AML1 Runt domain (UniProt Q01196 1-188)
AML1 Runt domain [2] = molecular target: T1, AML1 Runt domain; remark: listed apart in the source

T1 sequence (Q01196 1-188): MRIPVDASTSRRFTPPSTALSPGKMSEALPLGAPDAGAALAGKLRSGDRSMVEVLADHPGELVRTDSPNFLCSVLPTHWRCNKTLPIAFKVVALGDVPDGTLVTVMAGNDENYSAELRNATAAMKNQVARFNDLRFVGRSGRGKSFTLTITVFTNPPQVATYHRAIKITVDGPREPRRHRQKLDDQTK
AML1 Runt domain V170A, sequence (Q01196 1-188 V170A): as the sequence (Q01196 1-188) above, with V170A counted along it

Binder | binding result (AML1 Runt domain [1]) | also measured
GGGAUGGACGACCCACCACGGCGAGGUAUCCCAUCCC (structured_RNA) [Apt1-S] |  | binding result (AML1 Runt domain V170A): binds; Kd (AML1 Runt domain [1]): 0.99 ± 0.02 nM
GGGAUGGACGAGCCACCACGGCGAGCUAUCCCAUCCC (structured_RNA) [Apt1-S C12G-G26C] | binds | 
GGGAUGGACGACCCACCACGGCGCGGUAUCCCAUCCC (structured_RNA) [Apt1-S A24C] | binds | 
GGGAUGGACGACCCACCACGGCGUGGUAUCCCAUCCC (structured_RNA) [Apt1-S A24U] | binds | 
RDE (dsDNA) DNA 1: GTCGTTTGCGGTTTGGGGAAAAAAAAAAAAAAAAA DNA 2: TCCCCAAACCGCAAACGAC |  | binding result (AML1 Runt domain V170A): binds; Kd (AML1 Runt domain [1]): 9.6 ± 0.2 nM
GGGAUGGACGACCCACGAAAGCGAGGUAUCCCAUCCC (structured_RNA) [Apt1-S GAAA loop] | binds | 
GGGAUGGACGACCCACUUUUGCGAGGUAUCCCAUCCC (structured_RNA) [Apt1-S UUUU loop] | binds | 
Apt1-S double-stranded (1-18 / 19-37) (dsRNA) RNA 1: GGGAUGGACGACCCACCA RNA 2: CGGCGAGGUAUCCCAUCCC |  | binding signal (AML1 Runt domain [2]): ~20 fold reduction in affinity vs Apt1-S
